By Kd is commonly meant the concentration at which binding is half-saturated. Read a low Kd as higher affinity.

This note sets out measurements from USRE39057.

Test [1] addresses CXCR4 (Fusin), human (human) (UniProt P61073). Kind of test: flow cytometry, H9 cells. Background: A flow cytometer gives signals particle by particle.
Test [2] shares this target. Kind of test: Scatchard analysis of 125I-12G5 binding; RD cells.
For test [3] the target is unchanged. Kind of test: FACS, 10 µg/ml 12G5, Sup-T1 cells infected by HIV-2/vcp.
Test [4] shares this target. Kind of test: flow cytometry, macrophages cultured 5 days, average of 3 batches.
For test [5] the target is unchanged. Description: Scatchard analysis of 125I-12G5 surface binding at 4 C; RD or BC7 cells (endogenous CXCR4).
The target is the same in test [6]. Kind of test: FACS, 10 µg/ml 12G5, Nalm6 cells chronically infected by HIV-2/vcp; loss of surface Fusin or blocking of the epitope not told apart.
The target is the same in test [7]. Kind of test: flow cytometry, C8166 cells.
Test [8] has the same target. Kind of test: cell-based or functional assay.
The target is the same in test [9]. Description: flow cytometry, Sup T1 cells.
Test [10] has the same target. Kind of test: flow cytometry, MT-2 cells.
Test [11] has the same target. Description: FACS, 10 µg/ml 12G5, BC7 cells chronically infected by HIV-2/vcp; loss of surface Fusin or blocking of the epitope not told apart.
The target is the same in test [12]. Description: flow cytometry, PBMC cultured 5 days, average of 10 batches.
For test [13] the target is unchanged. Kind of test: Scatchard analysis of 125I-12G5 binding; BC7 cells.
Test [14] concerns the target HA-tagged CXCR4 (HA-tagged Fusin) on CHO-K1 cells (influenza; human) (UniProt P61073). Description: Scatchard analysis of 125I-12G5 surface binding at 4 C; CHO cells expressing HA-tagged Fusin.
The target of test [15] is CXCR4 (Fusin), human (human) (UniProt P61073). Kind of test: flow cytometry, HeLa/CD4 cells.
For test [16] the target is unchanged. Description: flow cytometry, Daudi/CD4 cells.
The target is the same in test [17]. Description: flow cytometry, RD/CD4 cells.
Test [18] shares this target. Kind of test: flow cytometry, MOLT-4 cells.
Test [19] concerns the target HA-tagged CXCR4 (HA-tagged Fusin) on CHO-K1 cells (influenza; human) (UniProt P61073). Description: Scatchard analysis of 125I-12G5 binding; CHO cells expressing HA-tagged Fusin.
Test [20] addresses CXCR4 (Fusin), human (human) (UniProt P61073). Kind of test: FACS, 10 µg/ml 12G5, Daudi cells chronically infected by HIV-2/vcp; loss of surface Fusin or blocking of the epitope not told apart.

Regarding MAb 12G5 (antibody), the percentage of cells expressing CXCR4 by 12G5 staining was found to be 51.4% in [1]; 5.2% in test [4]; 72% in test [7]; 81.5% in [9]; 99% in test [10]; 27.8% in test [12]. For the same substance, the percentage of cells expressing CXCR4 by 12G5 staining in test [15] is 35.5%; in [16], 88.4%; in test [17] it was 93.3%; in test [18], 89.5%. The values for the antibody molecules bound per cell (antibody molecules per cell) in [2], in test [13] and in test [19] were 400000, 50000 and 1e+06, respectively. Besides, the percent reduction of 12G5 binding on HIV-2/vcp-infected against uninfected cells in test [3] was 75%; in test [6] it was 87%; in test [11], 98%; in [20], 79%. The Kd in test [5] and in test [14] was 1 to 5 nM each time. In test [8], this substance gave an antibody concentration required to inhibit HIV-2/vcp infection of CD4-negative BC7, Nalm6 and Daudi cells (RT activity) of 5 to 20 µg/mL. For the same substance, the antibody concentration that inhibited CP-MAC infection of Sup-T1 cells (RT activity) in test [8] was found to be 1 µg/mL.
